Experimental data from the DeepSol protein solubility set.

Assay: soluble on expression in E. coli; label from the status in PepcDB or PDB records

Soluble on expression in E. coli, soluble:
MERFDAVIIGAGAAGMFCAAQAGQAGSRVLLIDNGKKPGRKILMSGGGRCNFTNLYVEPAAYLSQNPHFCKSALARYTQWDFIDLVGRYGIAWHEKTLGQLFCDDSAQRIVDMLVAECDKGGVTMRLRSEVLSVERDESGFVLALNGETVTTQKLVIASGGLSMPGLGASPFGYKIAEQFGLKVLPTRAGLVPFTLHKPLLEQLQTLSGVSVPCVITARNGTVFRENLLFTHRGLSGPAVLQISSYWQPGELVSINLLPDLSLEDVLNEQRNAHPNQSLKNTLAMHLPKRLVECLQQLGLIPDVSLRQLNVRDQQTLVDTLTAWQVQPNGTEGYRTAEVTLGGVDTNELSSRTMEARRVPGLYFIGEVMDVTGWLGGYNFQWAWSSAWACAQDLIALKIN, MERLFKHICLVARHSKPGITPALMQLANHLAAGGATVLIDKESVTPDEANGYPLIDRTDMGKLADLCIVLGGDGTMLSIARLLAPYRVPLVGINQGRLGFMTDIPLHEMLDSVDAILHGKFVPEDRILLQAAVVREDAEVASALAFNDVVFSRGAVGSMIEFEVFIDNQFVYSQRSDGLIVSTPTGSTAYSLASGGPILHPTLQAIALVPICPQSLSNRPIAVNDSCEVEFMLTRGLDARVHFDGQLHCDLMEMDRVLIRRYRNPLRILHPEGYNYYDMLRHKLHWGERLILEHHHHHH, MERMMLIAFDLEGTLTDMVSWELLHKKFETCGLAKKNAELFFSGRISYEEWAKLDASLWKGRRREEVEEVFKEVSLKDYAEELFRWLKEKGFKTAIITGGLMCLAKKVAEKLNPDYVYANELVFNEKGEITGDVIVRVTFDNKGEILERLKRELNPTLTVAVGDWKNDLPMFEVADISISLGEDHADYLAKDLREVKKILKEVLLETEKL, MERVSITERPDWREKAHEYGFNFHTMYGEPYWCEDAYYKLTLAQVEKLEEVTAELHQMCLKVVEKVIASDELMTKFRIPKHTWSFVRQSWLTHQPSLYSRLDLAWDGTGEPKLLENNADTPTSLYEAAFFQWIWLEDQLNAGNLPEGSDQFNSLQEKLIDRFVELREQYGFQLLHLTCCRDTVEDRGTIQYLQDCATEAEIATEFLYIDDIGLGEKGQFTDLQDQVISNLFKLYPWEFMLREMFSTKLEDAGVRWLEPAWKSIISNKALLPLLWEMFPNHPNLLPAYFAEDDHPQMEKYVVKPIFSREGANVSIIENGKTIEAAEGPYGEEGMIVQQFHPLPKFGDSYMLIGSWLVNDQPAGIGIREDRALITQDMSRFYPHIFVE, MERVVINVSGLRFETQMKTLAQFPETLLGDPEKRTQYFDPLRNEYFFDRNRPSFDAILYYYQSGGRLKRPVNVPFDIFTEEVKFYQLG, MESAKSIIGGHQNVILMRHGDRLDNFEPLWTSTAARPWDPPLAQDGKDRAFRTGQRIRSQLGVPIHRVFVSPFLRCIQTASEVVAALSAVDFDPIAMSSKDVLSIDNTKIKVAIEFGLSEIPHPIFIKSEVAPKDGKFDFKISDLEAMFPEGTVDSNVDMVYKEVPEWGESAQAFEDRYYKTVKILAEKYPSENLLLVTHWGAVSVAFYNYFKDATKYVVDYCGSVEMRRQILNGDGFGKFEVVTSHGVSYKYTKIPVHDHVVVSRQSPL, MESEMSDPQPLQEERYDMSGARLALTLCVTKAREGSEVDMEALERMFRYLKFESTMKRDPTAQQFLEELDEFQQTIDNWEEPVSCAFVVLMAHGEEGLLKGEDEKMVRLEDLFEVLNNKNCKALRGKPKVYIIQACRGEHRDPGEELRGNEELGGDEELGGDEVAVLKNNPQSIPTYTDTLHIYSTVEGYLSYRHDEKGSGFIQTLTDVFIHKKGSILELTEEITRLMANTEVMQEGKPRKVNPEVQSTLRKKLYLQ

Soluble on expression in E. coli, not soluble:
MEQTLKITSVLSDPTRFHIYEYIAKVHREVSVQEIAEKFHIHPNVARLHLTKLEDVRMVVSDTQKTGKGGRPSRLYRLSDEVIGLYFPFRDYQLLARIAIQTMAKLGPIGSEALRETGKRFGRELIASRLPHNGAASALTMADKIAIMEEAAEAAGFLPQLHYDEEKGVLYLDIFNCPFKEIAAQAPDTVCGMHHSFLEGMVETLFAGAEVTETENMMEGSHRCAYRIVIRP, MERPGSGLAGVVVGCDDGRVEKLGPQAGFTAVACISWDNRLRLPLAGSLGLVRVDGVDATSVLAGLVLRLGAAGRPVLLDSLTIGGFNIVSPPGVERLTGSPVLAVYNYRPSLERLESGLRSSRLPLAGVRARVLSLVEEAAEASTPHGPVYLVAWGLEASEARRLVLETQVYGRKPEPVRIAHYTASEASEALRRV
